The stoichiometry N is the number of molecules, sites or subunits per partner or assembly.

One data set addresses P01034. Nature of the data set: non-reducing SDS-PAGE with Western blot; supernatants and cellular extracts incubated with reduced glutathione (3 mM) at 37 °C before electrophoresis; HMW species quantitated by densitometry. The following applies: other: non-reducing SDS-PAGE with Western blot. Background: In western blotting, separated proteins are transferred to a membrane and probed.

Data set [1] concerns the molecule itself. Nature of the data set: non-reducing SDS-PAGE with Western blot; lysates (1% NP-40 buffer) and supernatants of stable HEK-293T cells; 2% SDS sample buffer without reducing agent, not heated; NuPAGE 4-12% Bis-Tris; blotted with anti-cystatin C MAB1196.

“And” between values parts separate entries of the source, which are not always exact repeats. Equal values may be shown once.

B1: L68Q variant of human cystatin C (natural protein, UniProt P01034 27-146, looked up)
chain: SSPGKPPRLVGGPMDASVEEEGVRRALDFAVGEYNKASNDMYHSRALQVVRARKQIVAGVNYFLDVEQGRTTCTKTQPNLDNCPFHDQPHLKRKAFCSFQIYAVPWQGTMTLSKSTCQDA
notes: Vector pBABE-CMV-Puro; also called L68Q-hCC; hCC L68Q
Turning to B1, the “percent reduction of HMW species with 3 mM GSH (secreted fraction)” value in the data set with P01034 is “≈90% reduction of the HMW in the secreted fraction”. Further, in data set [1], the “stoichiometry N” value was 2 and 3 and 4.

The values above are taken from PMC7988011, “NAC blocks Cystatin C amyloid complex aggregation in a cell system and in skin of HCCAA patients” (Nature Communications, 2021).
